{
  "source": "paper PMC4838364",
  "about": "(Nucleic Acids Research, 2016)",
  "molecules": {"B1": {"name": "PCNA from Thermoplasma acidophilum (natural protein, Thermoplasma acidophilum DSM 1728, UniProt Q9HJQ0 1-246, looked up)", "chain": "MIRLNLSVKNLKEITDLLSTIVSEAKFRVDENGMSVTAVDPAHVAMIRLEVPKEAFVEFHTDGQEEIALDIDRLKSVIRLASSSENVGITKDGEKLKFELGTINKSISLLDPSTIVTPKIPNITSEYYAVLKKSDFERGLRAAEDISDSIRFTLSQDGFKAYSHSESEESEMILPKDLITDMSCNTTIKSSYPLEYLLKFIKAISSTDSLKLSFRDDYPLSVEFYLDQNPGAKIKGLFLLAPRMEQ"}, "B2": {"name": "Hef from Thermoplasma acidophilum, wild-type (natural protein, Thermoplasma acidophilum DSM 1728, UniProt Q9HI46 1-508, looked up)", "chain": "MIIQPREYQLNVFKNSIGQNTLIVMPTGLGKTIIAAMFIEKFYGEKKRSLMVAPTKPLVLQHARTIADSTGISENEIGVFTGEIDAEERELIWVTKKIFVSTPQVVFNDMRSGILDITKFDLIIFDEAHRAVGNYAYVDIAQEYLKYKKKLIIGLTASPGSSREKIDEIMANLGISKVIAKTEMDEDVRKYVKTIDVKLIKIREPDGTKEIVNMIDAVMSKLLEPVKSSNFSIGRSRKDLVATMQKVINSAKEDRSLFQLVRRITAAIRLDYLKEYIETQGIDVALHYLEEMEKSQDPGIRRAISMLSSLDEFATLRTKLMLAADGYTNPKMEKTLSIMESNVHGNARAIVFTHYRITSDLLMDYIQKNGTSLKPVRFIGQADRGSDEGLSQDQQKKIIEDFKNNVYNVLIATSIAEEGLDIPDTDFVIFYEAVPSEIRYIQRKGRTGRSRNGQVYILVFENSRDMAYYYSSIRKVSRMTQTIEDLRQESGSDEKEEKSDVQKTIFDF"}},
  "key": {"[1]": {"molecular_target": "Flag-FANCM PIP-box mutant (L8R/W12S), full length (human) (UniProt Q8IYD8)", "sequence (Q8IYD8 whole entry L8R/W12S)": "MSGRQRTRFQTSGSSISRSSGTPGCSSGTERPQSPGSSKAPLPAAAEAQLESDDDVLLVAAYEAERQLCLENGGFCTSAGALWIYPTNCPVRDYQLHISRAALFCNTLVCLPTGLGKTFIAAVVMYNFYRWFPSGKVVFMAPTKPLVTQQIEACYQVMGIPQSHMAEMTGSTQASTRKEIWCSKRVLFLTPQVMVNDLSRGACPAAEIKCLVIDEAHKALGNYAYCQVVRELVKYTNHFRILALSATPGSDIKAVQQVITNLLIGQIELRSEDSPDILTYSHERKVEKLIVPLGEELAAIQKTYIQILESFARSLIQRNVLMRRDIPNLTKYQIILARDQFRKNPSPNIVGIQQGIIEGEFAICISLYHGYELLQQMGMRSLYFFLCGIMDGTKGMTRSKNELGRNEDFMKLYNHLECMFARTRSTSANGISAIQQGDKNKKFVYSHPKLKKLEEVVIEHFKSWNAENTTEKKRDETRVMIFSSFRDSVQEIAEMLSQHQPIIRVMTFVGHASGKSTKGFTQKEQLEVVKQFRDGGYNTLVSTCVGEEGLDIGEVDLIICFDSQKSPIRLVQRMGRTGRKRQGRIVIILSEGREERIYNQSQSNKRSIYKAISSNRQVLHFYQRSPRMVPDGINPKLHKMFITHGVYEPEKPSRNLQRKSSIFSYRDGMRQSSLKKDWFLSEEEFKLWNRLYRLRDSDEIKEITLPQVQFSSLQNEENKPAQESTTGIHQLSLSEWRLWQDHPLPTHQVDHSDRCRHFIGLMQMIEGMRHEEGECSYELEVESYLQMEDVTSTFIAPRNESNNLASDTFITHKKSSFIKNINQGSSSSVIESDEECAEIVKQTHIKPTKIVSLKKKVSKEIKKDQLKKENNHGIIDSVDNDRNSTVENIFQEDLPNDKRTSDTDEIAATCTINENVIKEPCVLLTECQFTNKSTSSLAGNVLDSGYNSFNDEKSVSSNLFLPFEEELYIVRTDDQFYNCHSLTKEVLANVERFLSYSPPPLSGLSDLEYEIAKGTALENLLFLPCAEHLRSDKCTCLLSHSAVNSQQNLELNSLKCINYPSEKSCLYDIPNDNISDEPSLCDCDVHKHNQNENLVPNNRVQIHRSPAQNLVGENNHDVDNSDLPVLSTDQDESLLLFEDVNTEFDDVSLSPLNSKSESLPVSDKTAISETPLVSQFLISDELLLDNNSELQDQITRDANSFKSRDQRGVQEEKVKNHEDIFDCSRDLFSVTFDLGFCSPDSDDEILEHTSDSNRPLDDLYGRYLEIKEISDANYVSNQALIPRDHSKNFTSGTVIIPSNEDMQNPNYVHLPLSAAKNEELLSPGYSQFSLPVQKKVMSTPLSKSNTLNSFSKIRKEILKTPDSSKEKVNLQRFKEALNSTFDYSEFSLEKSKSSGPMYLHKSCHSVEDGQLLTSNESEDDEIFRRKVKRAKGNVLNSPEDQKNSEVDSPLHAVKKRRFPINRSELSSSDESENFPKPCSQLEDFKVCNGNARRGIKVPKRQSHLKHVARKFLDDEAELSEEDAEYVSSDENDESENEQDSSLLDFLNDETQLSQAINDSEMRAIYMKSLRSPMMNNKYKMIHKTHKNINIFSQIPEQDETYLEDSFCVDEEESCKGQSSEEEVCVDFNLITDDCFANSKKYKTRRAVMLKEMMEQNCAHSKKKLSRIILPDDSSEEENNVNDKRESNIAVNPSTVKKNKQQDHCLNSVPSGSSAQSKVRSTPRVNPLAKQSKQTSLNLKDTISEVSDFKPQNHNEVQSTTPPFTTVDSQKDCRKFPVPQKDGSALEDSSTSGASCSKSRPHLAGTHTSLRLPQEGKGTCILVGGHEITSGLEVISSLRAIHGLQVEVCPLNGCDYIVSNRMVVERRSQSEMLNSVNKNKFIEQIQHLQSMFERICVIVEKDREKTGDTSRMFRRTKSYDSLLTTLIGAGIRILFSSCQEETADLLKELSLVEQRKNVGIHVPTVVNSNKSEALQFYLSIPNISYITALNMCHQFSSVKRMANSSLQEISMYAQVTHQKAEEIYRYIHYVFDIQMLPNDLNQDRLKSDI", "assay": "proximity ligation"}, "[2]": {"molecular_target": "B2", "assay": "ITC"}, "[3]": {"molecular_target": "the molecule itself", "assay": "SEC"}, "[4]": {"molecular_target": "Human PCNA, recombinant (human, UniProt P12004 1-261)", "sequence (P12004 whole entry)": "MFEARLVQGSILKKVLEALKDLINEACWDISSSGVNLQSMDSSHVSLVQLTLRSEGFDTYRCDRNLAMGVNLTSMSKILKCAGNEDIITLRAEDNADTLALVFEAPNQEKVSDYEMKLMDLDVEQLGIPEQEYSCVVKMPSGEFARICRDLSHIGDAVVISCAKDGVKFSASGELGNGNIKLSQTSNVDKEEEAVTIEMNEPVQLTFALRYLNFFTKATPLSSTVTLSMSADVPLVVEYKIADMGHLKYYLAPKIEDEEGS", "assay": "ITC"}, "[5]": {"molecular_target": "B1", "assay": "SAXS"}, "[6]": {"molecular_target": "B1", "assay": "SEC"}},
  "data": [
    {"molecule": "PCNA, endogenous (from UniProt P12004 1-261) (natural protein)", "values": [
      {"measurement": "PLA signal relative to wildtype FANCM (HU-treated cells)", "setting": "[1]", "result": 50, "unit": "%"}
    ]},
    {"molecule": "B1", "values": [
      {"measurement": "Kd", "setting": "[2]", "result": 1, "unit": "µM"},
      {"measurement": "stoichiometry N", "setting": "[3]", "result": 3}
    ]},
    {"molecule": "MSGRQRTLFQTWGSSIS (peptide, UniProt Q8IYD8 1-17, looked up)", "note": "[hsFANCM 1-17 wildtype peptide]", "values": [
      {"measurement": "Kd", "setting": "[4]", "result": 13, "unit": "µM"}
    ]},
    {"molecule": "B2", "values": [
      {"measurement": "stoichiometry N", "setting": "[5]", "result": 3, "unit": "taHef per taPCNA trimer"},
      {"measurement": "stoichiometry N", "setting": "[6]", "result": "3 taHef monomers per taPCNA homotrimer"}
    ]}
  ]
}
